Measurements: PMC2837123

Molecular target: PFV integrase (IN) (prototype foamy virus, UniProt P14350 752-1143)
Experiment: crystal structure

B1: pre-processed PFV U5 end (17/19 nt) (dsDNA)
DNA 1: TACAAAATTCCATGACA
DNA 2: ATTGTCATGGAATTTTGTA
binding result: binds
